Here are results for ten substances from publication PMC4671672.

The target in assay [1] is FLAG-NKX2-5 (mouse NKX2-5, pEF-FLAG-NKX2-5) (mouse) (UniProt P42582). Briefly: co-IP; protein extracts of COS-1 cells expressing FLAG-NKX2-5 (50 ug) and of COS-1 cells expressing GATA4 (30-84 ug) mixed; agarose bound anti-FLAG M2 antibody, overnight at +4°C in lysis buffer (20 mM Tris pH 7.5, 150 mM NaCl, 1 mM EDTA, 1 mM EGTA, 1% Triton X-100, 2.5 mM sodium pyrophosphate); immunoblot with anti-GATA4 and anti-NKX2-5; bands quantified, unspecific binding subtracted, normalized to input and to ….
UniProt P42582, sequence (P42582 whole entry): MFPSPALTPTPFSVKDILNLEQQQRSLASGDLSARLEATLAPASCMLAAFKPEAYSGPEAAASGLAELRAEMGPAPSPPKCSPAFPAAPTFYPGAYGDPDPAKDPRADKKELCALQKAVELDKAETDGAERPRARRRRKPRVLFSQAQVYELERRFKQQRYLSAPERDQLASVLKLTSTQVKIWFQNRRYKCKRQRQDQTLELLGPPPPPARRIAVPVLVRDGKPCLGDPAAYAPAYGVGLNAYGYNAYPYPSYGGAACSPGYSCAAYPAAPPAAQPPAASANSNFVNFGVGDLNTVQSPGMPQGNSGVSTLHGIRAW

The target is the same in assay [2].

In turn, mouse GATA4 K299A (natural protein) yielded a percent decrease of binding vs wtGATA4 in assay [1] of 61%.
For the substance mouse GATA4 M298Y (natural protein), in assay [1], the percent decrease of binding vs wtGATA4 was found to be 62%.
Turning to mouse GATA4 N272D (natural protein), the GATA4-NKX2-5 transcriptional synergy, 3xNKE luciferase reporter, COS-1 cells; reduction vs wtGATA4 in assay [2] stood at 79%.
Take mouse GATA4 N272S (natural protein): in assay [2], the GATA4-NKX2-5 transcriptional synergy, 3xNKE luciferase reporter, COS-1 cells; reduction vs wtGATA4 was 65%.
Take mouse GATA4 Q274H (natural protein): in assay [1], the percent decrease of binding vs wtGATA4 stood at 47%.
mouse GATA4 R264A (natural protein) had a percent decrease of binding vs wtGATA4 in assay [1] of 36%.
The same measure, in the same setting: the same measure for mouse GATA4 R283A (natural protein): 84%; for mouse GATA4 R283Q (natural protein): 91%.
Same read-out and setting: in the case of mouse GATA4 R319C (natural protein) it was 89%.
As for mouse GATA4 V217Y (natural protein), the percent increase of binding vs wtGATA4 in assay [1] came to 235%. Moreover, the GATA4-NKX2-5 transcriptional synergy, 3xNKE luciferase reporter, COS-1 cells; vs wtGATA4-NKX2-5 in assay [2] was determined as 146%.
